In the supplement of paper PMC9112550, “Optimization of the antimicrobial peptide Bac7 by deep mutational scanning” (BMC Biology, 2022):

Test system: Escherichia coli TOP10
Test: shrunken log2 fold change of peptide-encoding DNA abundance (4.5 h post-induction vs induction); higher = less antimicrobial activity (less host growth inhibition)
Conditions: time post-induction: 4.5 h; library: site-saturation at positions 5, 18, 19, 20
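Further: peptides expressed intracellularly from a pBAD plasmid library in pooled LB shake-flask culture, induced with 0.3% L-arabinose, DNA abundance read by NGS, three biological replicates, DESeq2 with apeglm shrinkage.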

Sequence	shrunken log2 fold change
RRIRMRPPRLPRPRPRPKFWPRP	1.87
RRIRQRPPRLPRPRPRPRKNPRP	0.309
RRIRDRPPRLPRPRPRPGVVPRP	0.708
RRIRPRPPRLPRPRPRPNVHPRP	-0.44
RRIRARPPRLPRPRPRPDNHPRP	-0.0167
RRIRERPPRLPRPRPRPKDWPRP	0.111
RRIRQRPPRLPRPRPRPTFAPRP	0.209
RRIRKRPPRLPRPRPRPFMGPRP	0.00448
RRIRCRPPRLPRPRPRPCMNPRP	-0.627
RRIRRRPPRLPRPRPRPDQLPRP	-0.0202
RRIRERPPRLPRPRPRPMCEPRP	0.0303
RRIRHRPPRLPRPRPRPKIYPRP	-0.296
RRIRGRPPRLPRPRPRPIEFPRP	0.0349
RRIRFRPPRLPRPRPRPHVMPRP	-0.288
RRIRTRPPRLPRPRPRPHMSPRP	0.0303
RRIRQRPPRLPRPRPRPLVYPRP	-0.737
RRIRKRPPRLPRPRPRPKHAPRP	-0.0322
RRIRKRPPRLPRPRPRPTYFPRP	-0.817
RRIRPRPPRLPRPRPRPACPPRP	0.147
RRIRRRPPRLPRPRPRPVSCPRP	-0.121
RRIRHRPPRLPRPRPRPAFGPRP	0.105
RRIRVRPPRLPRPRPRPRNMPRP	-0.318
RRIRERPPRLPRPRPRPHTCPRP	-0.0792
RRIRVRPPRLPRPRPRPCFMPRP	-0.302
RRIRPRPPRLPRPRPRPCQAPRP	0.00851

Sequence	shrunken log2 fold change
RRIRPRPPRLPRPRPRPQRGPRP	0.251
RRIRSRPPRLPRPRPRPEWMPRP	0.0203
RRIRTRPPRLPRPRPRPEYLPRP	-0.0156
RRIRRRPPRLPRPRPRPNICPRP	0.0828
RRIRMRPPRLPRPRPRPHHFPRP	-0.00112
RRIRNRPPRLPRPRPRPETWPRP	0.0309
RRIRGRPPRLPRPRPRPQVCPRP	2.63e-05
RRIRDRPPRLPRPRPRPYSKPRP	0.0519
RRIRLRPPRLPRPRPRPGHPPRP	0.0236
RRIRSRPPRLPRPRPRPTEKPRP	0.0802
RRIRSRPPRLPRPRPRPRRTPRP	0.183
RRIRKRPPRLPRPRPRPVRCPRP	0.746
RRIRPRPPRLPRPRPRPFPCPRP	-0.0101
RRIRLRPPRLPRPRPRPFIPPRP	-0.355
RRIRLRPPRLPRPRPRPMIFPRP	0.0629
RRIRYRPPRLPRPRPRPCKDPRP	-1.14
RRIRCRPPRLPRPRPRPMEIPRP	-1.16
RRIRLRPPRLPRPRPRPCKCPRP	-0.0362
RRIRYRPPRLPRPRPRPMDKPRP	-0.432
RRIRQRPPRLPRPRPRPTAPPRP	0.0785
RRIRRRPPRLPRPRPRPAPHPRP	0.858
RRIRRRPPRLPRPRPRPAYMPRP	0.0857
RRIRSRPPRLPRPRPRPCPIPRP	-0.267
RRIRDRPPRLPRPRPRPSVKPRP	-0.256
RRIRQRPPRLPRPRPRPCSPPRP	0.0218

Sequence	shrunken log2 fold change
RRIRHRPPRLPRPRPRPAHHPRP	0.178
RRIRVRPPRLPRPRPRPNKWPRP	-0.138
RRIRLRPPRLPRPRPRPATQPRP	0.00742
RRIRYRPPRLPRPRPRPMRFPRP	0.0781
RRIRSRPPRLPRPRPRPRICPRP	-0.191
RRIRLRPPRLPRPRPRPWEAPRP	-0.229
RRIRHRPPRLPRPRPRPSYIPRP	-1.77
RRIRQRPPRLPRPRPRPENAPRP	0.242
RRIRTRPPRLPRPRPRPPQGPRP	0.235
RRIRQRPPRLPRPRPRPQMHPRP	-0.168
RRIRNRPPRLPRPRPRPHKYPRP	-1.52
RRIRARPPRLPRPRPRPINAPRP	-0.256
RRIRIRPPRLPRPRPRPKPQPRP	0.0958
RRIRYRPPRLPRPRPRPQCPPRP	-0.15
RRIRFRPPRLPRPRPRPSWCPRP	-0.0879
RRIRERPPRLPRPRPRPPDSPRP	-0.303
RRIRWRPPRLPRPRPRPMLHPRP	-0.17
RRIRLRPPRLPRPRPRPLINPRP	-0.519
RRIRSRPPRLPRPRPRPWDYPRP	0.0318
RRIRARPPRLPRPRPRPVRWPRP	0.88
RRIRLRPPRLPRPRPRPRFNPRP	-0.223
RRIRMRPPRLPRPRPRPSISPRP	0.000307
RRIRMRPPRLPRPRPRPCLTPRP	0.000866
RRIRHRPPRLPRPRPRPHEQPRP	-0.0118
RRIRERPPRLPRPRPRPNEIPRP	-0.181

Sequence	shrunken log2 fold change
RRIRSRPPRLPRPRPRPRLFPRP	0.376
RRIRRRPPRLPRPRPRPQGGPRP	0.0141
RRIRMRPPRLPRPRPRPSTAPRP	0.788
RRIRARPPRLPRPRPRPNKPPRP	-0.0887
RRIRTRPPRLPRPRPRPVRMPRP	0.148
RRIRFRPPRLPRPRPRPPMWPRP	0.486
RRIRPRPPRLPRPRPRPKWRPRP	0.0676
RRIRLRPPRLPRPRPRPEIFPRP	0.161
RRIRTRPPRLPRPRPRPHTKPRP	-0.0963
RRIRCRPPRLPRPRPRPSLRPRP	-0.305
RRIRSRPPRLPRPRPRPFRSPRP	0.00887
RRIRLRPPRLPRPRPRPPVKPRP	-0.0732
RRIRNRPPRLPRPRPRPMVFPRP	-0.000155
RRIRMRPPRLPRPRPRPSENPRP	-0.0243
RRIRLRPPRLPRPRPRPTITPRP	-0.0781
RRIRWRPPRLPRPRPRPHMCPRP	-0.00659
RRIRHRPPRLPRPRPRPTKYPRP	-0.345
RRIRERPPRLPRPRPRPCAFPRP	-0.315
RRIRGRPPRLPRPRPRPSKTPRP	0.558
RRIRTRPPRLPRPRPRPIEQPRP	-0.00141
RRIRHRPPRLPRPRPRPGSQPRP	0.0187
RRIRYRPPRLPRPRPRPCYIPRP	-0.189
RRIRKRPPRLPRPRPRPRANPRP	0.588
RRIRYRPPRLPRPRPRPTGKPRP	0.019
RRIRKRPPRLPRPRPRPHQLPRP	0.0824

Sequence	shrunken log2 fold change
RRIRERPPRLPRPRPRPANYPRP	-0.0934
RRIRRRPPRLPRPRPRPKYTPRP	-0.000338
RRIRQRPPRLPRPRPRPWCHPRP	-0.169
RRIRRRPPRLPRPRPRPKGIPRP	0.268
RRIRARPPRLPRPRPRPFFLPRP	-0.0057
RRIRWRPPRLPRPRPRPFIGPRP	-0.38
RRIRFRPPRLPRPRPRPTIPPRP	-0.562
RRIRIRPPRLPRPRPRPPGGPRP	0.512
RRIRYRPPRLPRPRPRPHDSPRP	-0.08
RRIRKRPPRLPRPRPRPMKPPRP	0.145
RRIRARPPRLPRPRPRPINDPRP	0.00287
RRIRCRPPRLPRPRPRPQNCPRP	0.137
RRIRLRPPRLPRPRPRPTCCPRP	-0.013
RRIRPRPPRLPRPRPRPEICPRP	0.0345
RRIRARPPRLPRPRPRPNADPRP	0.825
RRIRIRPPRLPRPRPRPWVCPRP	0.0551
RRIRWRPPRLPRPRPRPFSQPRP	-0.0772
RRIRARPPRLPRPRPRPSMWPRP	0.45
RRIRLRPPRLPRPRPRPNDMPRP	-0.258
RRIRHRPPRLPRPRPRPMGSPRP	-0.0537
RRIRLRPPRLPRPRPRPYQCPRP	-0.373
RRIRTRPPRLPRPRPRPMVIPRP	-0.0894
RRIRTRPPRLPRPRPRPDQHPRP	-0.626
RRIRCRPPRLPRPRPRPNWAPRP	-0.336
RRIRFRPPRLPRPRPRPKLIPRP	-0.565
